The values below come from article PMC7264852, “Structural and Hydrodynamic Characterization of Dimeric Human Oligoadenylate Synthetase 2” (Biophysical Journal, 2020).

For one series, the target named is OAS2 (Homo sapiens) (UniProt P29728). To be noted: cited from earlier work.
Series [1] has as its target recombinant human OAS1 (2′-5′-oligoadenylate synthetase 1) (human) (UniProt P00973). The series can be described thus: AUC; sedimentation velocity, OAS1 at 2.0–3.5 g/L, 20°C, 25,000 rpm, 20 mM Tris pH 7.2, 100 mM NaCl, 1 mM DTT, 10% glycerol; monomer to dimer.
The target is the same in series [2]. The series can be described thus: SEC-SAXS; OAS1 loaded at 4.14 g/L (50 μL) on a Shodex KW404 column, Diamond Light Source B21; peak-1 and peak-2 analysed separately; Mw by SAXS MoW.
Series [3] deals with the molecule itself. The series is described as follows: SEC-SAXS; OAS2 loaded at 4.00 g/L (50 μL) on a Shodex KW404 column, Diamond Light Source B21; volume-based molecular weight from DAMMIN.

Regarding OAS2 (from UniProt P29728), the Kd with OAS2 (Homo sapiens) was 5.1 nM.
For “recombinant human OAS1 (2′-5′-oligoadenylate synthetase 1) (from UniProt P00973 1-400) (enzyme)”, the stoichiometry N in series [1] and in series [2] was 2 in each case.

B1: FLAG-tagged OAS2 (recombinant human 2′-5′-oligoadenylate synthetase 2, wild type) (enzyme, UniProt P29728-2 1-687, looked up)
chain: MGNGESQLSSVPAQKLGWFIQEYLKPYEECQTLIDEMVNTICDVLQEPEQFPLVQGVAIGGSYGRKTVLRGNSDGTLVLFFSDLKQFQDQKRSQRDILDKTGDKLKFCLFTKWLKNNFEIQKSLDGFTIQVFTKNQRISFEVLAAFNALSLNDNPSPWIYRELKRSLDKTNASPGEFAVCFTELQQKFFDNRPGKLKDLILLIKHWHQQCQKKIKDLPSLSPYALELLTVYAWEQGCRKDNFDIAEGVRTVLELIKCQEKLCIYWMVNYNFEDETIRNILLHQLQSARPVILDPVDPTNNVSGDKICWQWLKKEAQTWLTSPNLDNELPAPSWNVLPAPLFTTPGHLLDKFIKEFLQPNKCFLEQIDSAVNIIRTFLKENCFRQSTAKIQIVRGGSTAKGTALKTGSDADLVVFHNSLKSYTSQKNERHKIVKEIHEQLKAFWREKEEELEVSFEPPKWKAPRVLSFSLKSKVLNESVSFDVLPAFNALGQLSSGSTPSPEVYAGLIDLYKSSDLPGGEFSTCFTVLQRNFIRSRPTKLKDLIRLVKHWYKECERKLKPKGSLPPKYALELLTIYAWEQGSGVPDFDTAEGFRTVLELVTQYQQLCIFWKVNYNFEDETVRKFLLSQLQKTRPVILDPAEPTGDVGGGDRWCWHLLAKEAKEWLSSPCFKDGTGNPIPPWKVPVKVI
notes: human 2′-5′-oligoadenylate synthetase 2 (OAS2); residues D408, D410, D481, C668, F669, K670 are named; The N-terminal position of FLAG is stated only for the CAFAKA mutant; also called FLAG-OAS2; wild-type OAS2; source: HEK293T, transfected (pcDNA3); in lysate for the co-immunoprecipitation
As for B1, in series [3], the “stoichiometry N” value is 2.
